system: Escherichia coli TOP10; experiment: shrunken log2 fold change of peptide-encoding DNA abundance (4.5 h post-induction vs induction); higher = less antimicrobial activity (less host growth inhibition); settings: time post-induction: 4.5 h; library: site-saturation at positions 5, 18, 19, 20
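Note: peptides expressed intracellularly from a pBAD plasmid library in pooled LB shake-flask culture, induced with 0.3% L-arabinose, DNA abundance read by NGS, three biological replicates, DESeq2 with apeglm shrinkage.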

Row | Sequence | shrunken log2 fold change
1 | RRIRMRPPRLPRPRPRPCWNPRP | 0.236
2 | RRIRQRPPRLPRPRPRPFLRPRP | -0.0193
3 | RRIRCRPPRLPRPRPRPCSDPRP | -0.0728
4 | RRIRFRPPRLPRPRPRPWFQPRP | -0.285
5 | RRIRFRPPRLPRPRPRPHWAPRP | -0.0371
6 | RRIRKRPPRLPRPRPRPVRYPRP | 0.152
7 | RRIRQRPPRLPRPRPRPHVHPRP | -0.124
8 | RRIRIRPPRLPRPRPRPNVPPRP | 0.0631
9 | RRIRGRPPRLPRPRPRPYPDPRP | 0.201
10 | RRIRFRPPRLPRPRPRPKEEPRP | 0.0372
11 | RRIRNRPPRLPRPRPRPFACPRP | 0.0153
12 | RRIRLRPPRLPRPRPRPFWMPRP | -0.0876
13 | RRIRKRPPRLPRPRPRPWTTPRP | -0.0228
14 | RRIRHRPPRLPRPRPRPKEFPRP | -0.0336
15 | RRIRNRPPRLPRPRPRPHMQPRP | -0.304
16 | RRIRERPPRLPRPRPRPELCPRP | 0.511
17 | RRIRERPPRLPRPRPRPRDHPRP | 0.162
18 | RRIRGRPPRLPRPRPRPDEKPRP | 0.233
19 | RRIRKRPPRLPRPRPRPQCAPRP | 0.28
20 | RRIRERPPRLPRPRPRPVEAPRP | 0.21
21 | RRIRQRPPRLPRPRPRPEVWPRP | 0.552
22 | RRIRTRPPRLPRPRPRPFHEPRP | -0.126
23 | RRIRRRPPRLPRPRPRPGYAPRP | 0.259

Row | Sequence | shrunken log2 fold change
24 | RRIRARPPRLPRPRPRPLKTPRP | 0.219
25 | RRIRCRPPRLPRPRPRPGVTPRP | -0.175
26 | RRIRQRPPRLPRPRPRPTYTPRP | -0.346
27 | RRIRERPPRLPRPRPRPDNEPRP | -0.0338
28 | RRIRIRPPRLPRPRPRPEQYPRP | -0.0765
29 | RRIRKRPPRLPRPRPRPQTVPRP | 0.0918
30 | RRIRTRPPRLPRPRPRPTYAPRP | -0.0854
31 | RRIRIRPPRLPRPRPRPCQVPRP | -0.0176
32 | RRIRNRPPRLPRPRPRPCSLPRP | -0.262
33 | RRIRKRPPRLPRPRPRPLCFPRP | 0.188
34 | RRIRRRPPRLPRPRPRPRACPRP | 0.352
35 | RRIRIRPPRLPRPRPRPMNQPRP | -0.169
36 | RRIRWRPPRLPRPRPRPHKHPRP | -0.117
37 | RRIRDRPPRLPRPRPRPVEFPRP | -0.0374
38 | RRIRLRPPRLPRPRPRPEMIPRP | 0.0183
39 | RRIRSRPPRLPRPRPRPMYTPRP | -0.0916
40 | RRIRHRPPRLPRPRPRPHNLPRP | 0.0201
41 | RRIRIRPPRLPRPRPRPDFKPRP | 3.01
42 | RRIRPRPPRLPRPRPRPIVEPRP | 0.233
43 | RRIRNRPPRLPRPRPRPWDLPRP | 0.0191
44 | RRIRSRPPRLPRPRPRPGAMPRP | 0.724
45 | RRIRERPPRLPRPRPRPLISPRP | -0.0142
46 | RRIRRRPPRLPRPRPRPKADPRP | 0.198

Row | Sequence | shrunken log2 fold change
47 | RRIRQRPPRLPRPRPRPQWSPRP | 0.282
48 | RRIRNRPPRLPRPRPRPCNHPRP | -0.298
49 | RRIRRRPPRLPRPRPRPPVNPRP | 0.282
50 | RRIRCRPPRLPRPRPRPNLPPRP | 0.649
51 | RRIRGRPPRLPRPRPRPMMDPRP | 0.66
52 | RRIRCRPPRLPRPRPRPVKMPRP | -0.248
53 | RRIRCRPPRLPRPRPRPQPPPRP | 0.806
54 | RRIRVRPPRLPRPRPRPCCPPRP | -0.25
55 | RRIRWRPPRLPRPRPRPPRPPRP | 0.859
56 | RRIRARPPRLPRPRPRPKTYPRP | -0.214
57 | RRIRKRPPRLPRPRPRPWKLPRP | -0.14
58 | RRIRMRPPRLPRPRPRPDHIPRP | -0.000611
59 | RRIRQRPPRLPRPRPRPFQIPRP | 0.0399
60 | RRIRYRPPRLPRPRPRPFTHPRP | -0.187
61 | RRIRERPPRLPRPRPRPFIMPRP | -0.0895
62 | RRIRMRPPRLPRPRPRPVSFPRP | 0.000809
63 | RRIRFRPPRLPRPRPRPLQRPRP | 0.071
64 | RRIRERPPRLPRPRPRPTTRPRP | 0.0679
65 | RRIRCRPPRLPRPRPRPNRVPRP | -0.206
66 | RRIRARPPRLPRPRPRPCYEPRP | -0.109
67 | RRIRDRPPRLPRPRPRPNHAPRP | -0.31
68 | RRIRGRPPRLPRPRPRPACPPRP | 0.46
69 | RRIRHRPPRLPRPRPRPFTSPRP | -0.197

Row | Sequence | shrunken log2 fold change
70 | RRIRNRPPRLPRPRPRPIILPRP | -0.234
71 | RRIRNRPPRLPRPRPRPKICPRP | -0.262
72 | RRIRFRPPRLPRPRPRPGIFPRP | -0.218
73 | RRIRARPPRLPRPRPRPYRQPRP | -0.0187
74 | RRIRIRPPRLPRPRPRPKSIPRP | -0.14
75 | RRIRHRPPRLPRPRPRPNCPPRP | -0.152
76 | RRIRMRPPRLPRPRPRPITFPRP | 0.0589
77 | RRIRGRPPRLPRPRPRPEYYPRP | 0.166
78 | RRIRYRPPRLPRPRPRPTKMPRP | -0.22
79 | RRIRVRPPRLPRPRPRPCVHPRP | -0.192
80 | RRIRERPPRLPRPRPRPQCCPRP | -0.106
81 | RRIRQRPPRLPRPRPRPNNLPRP | -0.401
82 | RRIRQRPPRLPRPRPRPSIWPRP | -0.0257
83 | RRIRGRPPRLPRPRPRPDSAPRP | 0.525
84 | RRIRWRPPRLPRPRPRPIIQPRP | -0.151
85 | RRIRIRPPRLPRPRPRPNITPRP | -0.726
86 | RRIRWRPPRLPRPRPRPCAPPRP | -0.0663
87 | RRIRARPPRLPRPRPRPMWNPRP | -0.342
88 | RRIRLRPPRLPRPRPRPQMLPRP | 0.0385
89 | RRIRERPPRLPRPRPRPSGTPRP | -0.117
90 | RRIRIRPPRLPRPRPRPPFFPRP | 0.41
91 | RRIRIRPPRLPRPRPRPSKVPRP | -1
